Laboratory results: doi:10.1101/598128 (bioRxiv, 2019)

T1: 6xHis-Hop1 (budding yeast, UniProt P20050 1-605)
T1 sequence (looked up): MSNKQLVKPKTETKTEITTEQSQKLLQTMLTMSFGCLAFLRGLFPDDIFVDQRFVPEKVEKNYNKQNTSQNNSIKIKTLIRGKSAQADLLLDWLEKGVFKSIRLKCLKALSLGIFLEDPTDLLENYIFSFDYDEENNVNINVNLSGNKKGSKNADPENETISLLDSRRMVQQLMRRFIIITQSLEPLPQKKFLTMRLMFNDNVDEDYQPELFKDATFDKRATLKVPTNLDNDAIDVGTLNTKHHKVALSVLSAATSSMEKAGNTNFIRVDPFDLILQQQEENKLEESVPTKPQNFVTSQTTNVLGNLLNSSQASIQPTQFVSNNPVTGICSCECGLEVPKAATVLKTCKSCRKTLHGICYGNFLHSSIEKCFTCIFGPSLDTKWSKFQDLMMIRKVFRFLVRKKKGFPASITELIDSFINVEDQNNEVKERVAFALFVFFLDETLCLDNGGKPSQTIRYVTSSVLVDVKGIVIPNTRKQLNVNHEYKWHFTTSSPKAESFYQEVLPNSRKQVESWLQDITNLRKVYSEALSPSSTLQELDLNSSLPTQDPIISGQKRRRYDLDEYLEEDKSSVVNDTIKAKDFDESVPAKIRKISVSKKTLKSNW

T2: His-Orc1 (subunit of the purified His-ORC complex) (budding yeast, UniProt P54784 1-913)
T2 sequence: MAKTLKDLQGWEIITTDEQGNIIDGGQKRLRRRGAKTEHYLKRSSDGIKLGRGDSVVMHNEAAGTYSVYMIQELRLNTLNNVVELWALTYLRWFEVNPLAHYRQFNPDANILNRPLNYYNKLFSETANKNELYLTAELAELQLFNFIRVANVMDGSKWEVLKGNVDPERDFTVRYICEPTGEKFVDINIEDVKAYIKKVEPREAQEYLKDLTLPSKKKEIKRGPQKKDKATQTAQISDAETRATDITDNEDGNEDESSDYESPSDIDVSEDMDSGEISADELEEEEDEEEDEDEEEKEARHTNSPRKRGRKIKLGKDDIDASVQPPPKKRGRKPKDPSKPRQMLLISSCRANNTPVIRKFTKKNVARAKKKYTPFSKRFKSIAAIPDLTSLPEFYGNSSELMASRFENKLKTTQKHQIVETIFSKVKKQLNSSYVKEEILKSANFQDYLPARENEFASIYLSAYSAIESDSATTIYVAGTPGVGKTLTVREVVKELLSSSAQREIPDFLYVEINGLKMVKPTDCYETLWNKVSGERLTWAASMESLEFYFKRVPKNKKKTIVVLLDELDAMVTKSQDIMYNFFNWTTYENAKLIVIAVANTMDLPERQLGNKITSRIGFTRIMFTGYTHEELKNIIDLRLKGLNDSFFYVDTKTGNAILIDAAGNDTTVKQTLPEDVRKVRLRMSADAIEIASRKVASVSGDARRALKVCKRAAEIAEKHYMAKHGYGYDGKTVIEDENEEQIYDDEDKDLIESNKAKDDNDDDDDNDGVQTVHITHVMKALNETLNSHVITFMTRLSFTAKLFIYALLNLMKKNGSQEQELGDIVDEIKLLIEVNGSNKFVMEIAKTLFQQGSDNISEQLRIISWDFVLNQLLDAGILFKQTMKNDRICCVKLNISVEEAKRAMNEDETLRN

B1: His-MBP-Pch2 (natural protein, budding yeast, UniProt P38126 1-564, looked up)
chain: MSYIVDLQVRGSSLRVIKCMFREDEQISSLHSGSDSKQNSNKKLGEFLNLLKAVVKRKLESFPKDRLKTSIITGQELMREGQGSIEIKDPPTEAQQHLIRSLAKVLLHQFSSINGKVNTVNEGQDNLFLSLFVKKISIEQQSTSHVSIKLNFHEKINLGQHIDSILDSEETNESDTYHMGSVDEFIIYPFCCLEEQDELKNGSILSTEFDKIDLELDEDDGFEGETLNNCINSVGNFDIPLSKQTLNLVNISYLPGTTFEGQWESLYFGNNIKERLYSYATISLKIARFKQTGDSNQEDITTLITNNKLLLVHGPPGTGKTTLCKALCQKLSVRREFSDGSDTIDTNYKGIIIELSCARIFSKWFGESSKNISIVFKDIEELLKVNEGRGIFICLLIDEVEAIASSRTNLSSRNESTDGIRVVNTLLTQLDRLKKYHNFLALATSNLLDSLDDAFVDRADGVFYVGNPTAEGILHILKVCIEEMITSGIILFHARSTGVKFFNKYQDILRKIAIKCSTVDISGRTIRKLPLMCLSEYFRTFPVDDDEFVLALAMSARKLSAARK
B2: Orc5 (subunit of the purified His-ORC complex) (natural protein, budding yeast)
chain: MNVTTPEVAFREYQTNCLASYISADPDITPSNLILQGYSGTGKTYTLKKYFNANPNLHAVWLEPVELVSWKPLLQAIARTVQYKLKTLYPNIPTTDYDPLQVEEPFLLVKTLHNIFVQYESLQEKTCLFLILDGFDSLQDLDAALFNKYIKLNELLPKDSKINIKFIYTMLETSFLQRYSTHCIPTVMFPRYNVDEVSTILVMSRCGELMEDSCLRKRIIEEQITDCTDDQFQNVAANFIHLIVQAFHSYTGNDIFALNDLIDFKWPKYVSRITKENIFEPLALYKSAIKLFLSTDDNLSENGQGESAITTNRDDLENSQTYDLSIISKYLLIASYICSYLEPRYDASIFSRKTRIIQGRAAYGRRKKKEVNPRYLQPSLFAIERLLAIFQAIFPIQGKAESGSLSALREESLMKANIEVFQNLSELHTLKLIATTMNKNIDYLSPKVRWKVNVPWEIIKEISESVHFNISDYFSDIHE

What was measured:
6xHis-Hop1 = target: T1, 6xHis-Hop1; assay: pull-down
SEC = target: the molecule itself; assay: SEC
[1] = target: T2, His-Orc1 (subunit of the purified …); assay: cross-linking
His-MBP-Pch2 = target: B1; assay: cross-linking

Row | Binder | binding result (6xHis-Hop1) | stoichiometry N (SEC) | binding result [1] | binding result (His-MBP-Pch2)
1 | B1 | binds | 6 | binds | –
2 | B2 | – | – | – | binds
